Inhibition of infection by HCVpp of genotypes 1a and 1b, target cells pre-incubated with 30 µg/ml antibody data for one substance are collected here from patent publication US20060222661A1.

A value given as a limit tells only on which side of the number the result lay.

The target in the test is human CD81 (on Huh-7 cells and human primary hepatocytes) (human) (UniProt P60033). In words: cell-based or functional assay.
Sequence of human CD81 (on Huh-7 cells and human primary hepatocytes) (human) (P60033 whole entry): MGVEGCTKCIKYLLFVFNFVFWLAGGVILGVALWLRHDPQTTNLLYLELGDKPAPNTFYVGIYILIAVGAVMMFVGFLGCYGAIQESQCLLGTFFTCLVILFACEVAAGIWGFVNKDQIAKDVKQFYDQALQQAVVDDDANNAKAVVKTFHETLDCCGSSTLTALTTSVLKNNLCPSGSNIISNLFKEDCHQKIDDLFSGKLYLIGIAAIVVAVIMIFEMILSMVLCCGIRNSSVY

Consider “JS-81 anti-CD81 monoclonal antibody (Pharmingen)”, for which the inhibition of infection by HCVpp of genotypes 1a and 1b, target cells pre-incubated with 30 µg/ml antibody is more than 90%.
